As a reminder, the Kd is a measure of binding affinity in units of concentration. Low readings indicate a tighter complex, high ones a looser complex. A word on the koff: it is a measure of how fast the partners let go of each other. Low readings indicate slow dissociation, high ones fast dissociation. Broadly, the kon is the second-order rate constant of association. High values mean faster complex formation, low ones slower complex formation.

Where a chain is given by its changes, count along the chain named.

This assay deals with T1, human FOLR1-HIS (human, UniProt P15328 25-233).
T1 construct: Analyte of the Biacore assay; also called FolRα-ECD; extracellular domain of FOLR1; not shown: HIS tag
Put plainly: SPR (Biacore), antibody captured on anti-Fc, human FOLR1-HIS analyte, 25 C. On the technique in general: SPR reads the build-up and loss of mass on a sensor chip optically.

T1 sequence (P15328 25-233 limits assumed): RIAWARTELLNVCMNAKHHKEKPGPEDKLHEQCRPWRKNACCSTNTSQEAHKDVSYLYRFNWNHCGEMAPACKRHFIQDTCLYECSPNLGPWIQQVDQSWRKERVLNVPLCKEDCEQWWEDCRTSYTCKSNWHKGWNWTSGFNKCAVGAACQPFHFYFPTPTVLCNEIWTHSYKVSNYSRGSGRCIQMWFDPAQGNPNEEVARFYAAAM

B1: SRP1848-E06 (antibody, V domains shown)
VH: EVQLVESGGGLVQPSGSLRLSCAASGFNINRYYIHWVRQAPGKGLEWVGGITPNDGYTDYADSVEGRFTTSADTSKNTAYLQMNSLRAEDTAVYYCARGTWSWPSGHSYYLDYWGQGTLVTVSS
VL: not shown
notes: IgG with common trastuzumab LC, cell-free expressed, HIS- and FLAG-tagged; also called Antibody 35
For the molecule B1, binding was characterised by a dissociation constant (Kd) of 1.63 nM.

B2: SRP1848-E03 (antibody, V domains shown)
VH: EVQLVESGGGLAQPGGSLRLSCAASGFNIGNYYIHWVRQAPGKGLEWVGGITPRDGFTDYADSVKGRFTISADTSKNTAYLQVNSLRAEDTAVYYCARGSWSWPAGHSYYLDYWGQGTLVTVSS
VL: not shown
notes: IgG with common trastuzumab LC, cell-free expressed, HIS- and FLAG-tagged; also called Antibody 33
As for B2, the affinity, expressed as Kd, was 2.67 nM; the off-rate (koff) was determined as 0.00183 s⁻¹; the association rate constant (kon) is 688000 M⁻¹ s⁻¹.

B3: SRP1848-E07 (antibody, V domains shown)
VH: EVQLVESGGGLVQPGGSLRLSCAASGFNIRKSSIHWVRQAPGKGLEWVGEIFPYDGSTDYADNVKGRFTISADTSKNTAYLQMNSLRAEDTAVYYCARGAWSWRSGYGYYIDYWGQGTLVTVSS
VL: not shown
notes: IgG with common trastuzumab LC, cell-free expressed, HIS- and FLAG-tagged; also called Antibody 36
In turn, B3 came in with a Kd of 1.91 nM, an off-rate constant (koff) of 0.0024 s⁻¹ and a kon of 1.25e+06 M⁻¹ s⁻¹.

B4: SRP1848-H01 (antibody, V domains shown)
VH: EVQLVESGGGLVQPGGSLRLSCAASGFNIRTQSIHWVRQAPGKGLEWIGDIFPIDGITDYADSVKGRFTISADTSKNTAYLQMNSLRAEDTAVYYCARGSWSWPSGMDYYLDYWGQGTLVTVSS
VL: not shown
notes: IgG with common trastuzumab LC, cell-free expressed, HIS- and FLAG-tagged; also called Antibody 55
B4 showed a Kd of 2.11 nM.

B5: SRP1848-F02 (antibody, V domains shown)
VH: B4 VH with Q32Y, I48V, D50S, I54N, I57T, F68L, P104Q, S105A, M107Y, D108G
VL: not shown
notes: IgG with common trastuzumab LC, cell-free expressed, HIS- and FLAG-tagged; also called Antibody 38
In turn, B5 registered a Kd of 4.49 nM, a koff of 0.00637 s⁻¹ and a kon of 1.42e+06 M⁻¹ s⁻¹.

B6: SRP1848-F05 (antibody, V domains shown)
VH: B3 VH with R30S, F52Y, Y54N, N63S, A100S, S102A, G108S, Y110F, I111L
VL: not shown
notes: IgG with common trastuzumab LC, cell-free expressed, HIS- and FLAG-tagged; also called Antibody 40
B6 had an equilibrium dissociation constant (Kd) of 2.4 nM, a dissociation rate constant (koff) of 0.00157 s⁻¹ and a kon of 656000 M⁻¹ s⁻¹.

B7: SRP1848-F06 (antibody, V domains shown)
VH: EVQLVESGGGLVQPGGSLRLSCAASGFNISLSYIHWVRQAPGKGLEWVGGISPIDGNTDYADSVKGRFTISADTSKNTAYLQMNSLRAEDTAVYYCARGFWAWRSGYGYYLDYWGQGTLVTVSS
VL: not shown
notes: IgG with common trastuzumab LC, cell-free expressed, HIS- and FLAG-tagged; also called Antibody 41
B7 displayed a Kd of 17 nM, a koff of 0.00775 s⁻¹ and an on-rate constant (kon) of 456000 M⁻¹ s⁻¹.

B8: SRP1848-F10 (antibody, V domains shown)
VH: B7 VH with L31N, S32N, Y33S, G50S, S52F, I54N, N57Y, F100S, A102F
VL: not shown
notes: IgG with common trastuzumab LC, cell-free expressed, HIS- and FLAG-tagged; also called Antibody 45
B8 displayed a dissociation constant (Kd) of 2.83 nM, an off-rate constant (koff) of 0.00247 s⁻¹ and a kon of 872000 M⁻¹ s⁻¹.

B9: SRP1848-F08 (antibody, V domains shown)
VH: EVQLVESGGGLVQPGGSLRLSCAAGGFNISNHSIHWVRQAPGKGVEWVGEIYPVDGITDYADSVKGRFTISADTSKNTAYLRMNSLRAEDTAVYYCARGSWYWQSGYSYYLDYWGQGTLVTVSS
VL: not shown
notes: IgG with common trastuzumab LC, cell-free expressed, HIS- and FLAG-tagged; also called Antibody 43
For B9, the dissociation constant Kd was found to be 4.58 nM, the dissociation rate constant (koff) was found to be 0.00272 s⁻¹ and the kon stood at 594000 M⁻¹ s⁻¹.

B10: SRP1848-F07 (antibody, V domains shown)
VH: B9 VH with G25S, V45L, V54N, R82Q, R87S, Y102D, Q104R
VL: not shown
notes: IgG with common trastuzumab LC, cell-free expressed, HIS- and FLAG-tagged; also called Antibody 42
In turn, B10 came in with a dissociation constant (Kd) of 1.56 nM, a koff of 0.00249 s⁻¹ and a kon of 1.6e+06 M⁻¹ s⁻¹.

B11: SRP1848-G03 (antibody, V domains shown)
VH: B2 VH with A12V, G30S, N31T, R54S, F68S, V83M, A105S, S108G, Y110F
VL: not shown
notes: IgG with common trastuzumab LC, cell-free expressed, HIS- and FLAG-tagged; also called Antibody 48
Take B11: binding was put at a Kd of 1.99 nM, the dissociation rate constant (koff) amounted to 0.00197 s⁻¹ and the kon is 990000 M⁻¹ s⁻¹.

B12: SRP1848-F09 (antibody, V domains shown)
VH: B7 VH with L31N, S32H, I54L, N57Y, F100A, A102S, L111I
VL: not shown
notes: IgG with common trastuzumab LC, cell-free expressed, HIS- and FLAG-tagged; also called Antibody 44
Molecule B12 gave a Kd of 4.85 nM, a koff of 0.00679 s⁻¹ and a kon of 1.4e+06 M⁻¹ s⁻¹.

B13: SRP1848-F01 (antibody, V domains shown)
VH: B4 VH with Q32Y, I48V, D50S, I54N, I57T, S102A, P104R, S105A, M107Y, D108S
VL: not shown
notes: IgG with common trastuzumab LC, cell-free expressed, HIS- and FLAG-tagged; also called Antibody 37
B13 registered an equilibrium dissociation constant (Kd) of 3.18 nM, an off-rate constant (koff) of 0.00362 s⁻¹ and an on-rate constant (kon) of 1.14e+06 M⁻¹ s⁻¹.

B14: SRP1848-F11 (antibody, V domains shown)
VH: B7 VH with L31N, S32N, S52T, K76M, F100S, A102Y, S105A, T118A
VL: not shown
notes: IgG with common trastuzumab LC, cell-free expressed, HIS- and FLAG-tagged; also called Antibody 46
B14 registered a Kd of 4.71 nM, a koff of 0.0039 s⁻¹ and a kon of 828000 M⁻¹ s⁻¹.

B15: SRP1848-G01 (antibody, V domains shown)
VH: B7 VH with L31R, S32H, Y33S, G50W, S52A, I54N, N57S, F100S, G108S, Y110F
VL: not shown
notes: IgG with common trastuzumab LC, cell-free expressed, HIS- and FLAG-tagged; also called Antibody 47
B15 registered a Kd of 5.09 nM, a koff of 0.00226 s⁻¹ and an on-rate constant (kon) of 444000 M⁻¹ s⁻¹.

B16: SRP1848-D03 (antibody, V domains shown)
VH: B4 VH with L11V, T31Y, Q32F, I48V, I54N, I57S, D90E, S100H, M107Y, D108W
VL: not shown
notes: IgG with common trastuzumab LC, cell-free expressed, HIS- and FLAG-tagged; also called Antibody 25
Consider B16, for which the affinity, expressed as Kd, was 5.19 nM. That is a single-digit nanomolar value.

B17: SRP1848-G04 (antibody, V domains shown)
VH: EVQLVESGGGLVQPGGSLRLSCAASGFNIHSTDIHWVRQAPGKGLEWVAYITPAGGATFYADSVKGRFTISADTSKNTAYLQMNSLRAEDTAVYYCARYPYWFAGYMDYWGQGTLVTVSS
VL: not shown
notes: IgG with common trastuzumab LC, cell-free expressed, HIS- and FLAG-tagged; also called Antibody 49
B17 gave a Kd of 6.4 nM, a koff of 0.00379 s⁻¹ and an on-rate constant (kon) of 591000 M⁻¹ s⁻¹.

B18: SRP1848-G07 (antibody, V domains shown)
VH: B17 VH with F59W, Y101F
VL: not shown
notes: IgG with common trastuzumab LC, cell-free expressed, HIS- and FLAG-tagged; also called Antibody 51
In turn, B18 registered a dissociation constant Kd of 7.45 nM, a dissociation rate constant (koff) of 0.00451 s⁻¹ and a kon of 605000 M⁻¹ s⁻¹.

B19: SRP1848-G10 (antibody, V domains shown)
VH: B17 VH with G16S, H30R, F59Y, M107I
VL: not shown
notes: IgG with common trastuzumab LC, cell-free expressed, HIS- and FLAG-tagged; also called Antibody 53
B19: the Kd came out at 4.55 nM, the koff was 0.00345 s⁻¹ and the kon is 758000 M⁻¹ s⁻¹.

B20: SRP1848-G06 (antibody, V domains shown)
VH: B17 VH with H30R, F59Y, S63N, Y99Q
VL: not shown
notes: IgG with common trastuzumab LC, cell-free expressed, HIS- and FLAG-tagged; also called Antibody 50
For B20, the affinity, expressed as Kd, was 6.7 nM; the off-rate constant (koff) turned out to be 0.00381 s⁻¹; the on-rate constant (kon) was found to be 569000 M⁻¹ s⁻¹.

B21: SRP1848-G09 (antibody, V domains shown)
VH: B17 VH with H30R, S31G, Y99H, P100E, A104S
VL: not shown
notes: IgG with common trastuzumab LC, cell-free expressed, HIS- and FLAG-tagged; also called Antibody 52
Take B21: binding was characterised by a dissociation constant (Kd) of 7.56 nM, the koff stood at 0.00646 s⁻¹ and the on-rate constant (kon) came out at 856000 M⁻¹ s⁻¹.

B22: SRP1848-G11 (antibody, V domains shown)
VH: B17 VH with H30S, F59W, A104S
VL: not shown
notes: IgG with common trastuzumab LC, cell-free expressed, HIS- and FLAG-tagged; also called Antibody 54
In the case of B22, binding was put at a Kd of 9.14 nM, the koff is 0.00637 s⁻¹ and the kon was found to be 696000 M⁻¹ s⁻¹.

For the origin of these results see US20250090676A1 (SUTRO BIOPHARMA, published 2025).
